The text below walks through data of patent US20200157236A1 (CELLDEX THERAPEUTICS, published 2020).

Sequences and labels used below:
B1: Ab415 (antibody, V domains shown)
VH: QVQLVQSGAEVAKPGASVKLSCKASGYTFTSYWMHWVKQAPGQGLEWIGYIKPSSGYTKYNQKFKDKATLTADKSTSTAYMELRSLRSDDTAVYYCARDYYGSSSWFAYWGQGTLVTVSS
VL: EIVMTQSQATLSTSPGERATLSCKASQNVGTNVAWYQQKPGQAPRALIYSASYRYSGVPARFSGSGSGTDFTLTISSVEPEDFAVYYCQQYNSYPYMYTFGQGTKLEIK
notes: humanized
B2: Ab445 (antibody, V domains shown)
VH: EVQLVQSGAEVKKPGSSVKVSCKASGYTFSSYWMHWVRQAPGQGLEWIGYIKPSSGYTKYNQKFKDKATLTADKSTSTAYMELSSLRSEDTAVYYCARDYYGSSSWFAYWGQGTLVTVSS
VL: EIVMTQSQATMSTSVGERATLSCKASQNVGTNVAWYQQKPGQSPKALIYGASTRATGVPARFSGSGSGTDFTLTISSVEPEDFAVYYCQQYNSYPYMYTFGQGTKLEIK
notes: humanized
B3: Ab418 (antibody, V domains shown)
VH: EVQLVQSGAEVKKPGASVKLSCKASGYTFTSYWMHWVRQAPGQGLEWIGYIKPSSGYTKYAQKLQGRVTLTADKSTSTAYMELRSLRSDDTAVYYCARDYYGSSSWFAYWGQGTLVTVSS
VL: EIVMTQSQATLSTSPGERATLSCKASQNVGTNVAWYQQKPGQAPRALIYSASYRYSGVPARFSGSGSGTDFTLTISSVEPEDFAVYYCQQYNSYPYMYTFGQGTKLEIK
notes: humanized
B4: Ab444 (antibody, V domains shown)
VH: EVQLVQSGAEVKKPGSSVKLSCKASGYTFTSYWMHWVRQAPGQGLEWIGYIKPSSGYTKYNQKFKDKATLTADKSTSTAYMELSSLRSEDTAVYYCARDYYGSSSWFAYWGQGTLVTVSS
VL: EIVMTQSQATMSTSVGERATLSCKASQNVGTNVAWYQQKPGQSPKALIYGASTRATGVPARFSGSGSGTDFTLTISSVEPEDFAVYYCQQYNSYPYMYTFGQGTKLEIK
notes: humanized
B5: Ab422 (antibody, V domains shown)
VH: EVQLVQSGAEVKKPGSSVKLSCKASGYTFSSYWMHWVKQAPGQGLEWIGYIKPSSGYTKYAQKFQGRVTLTADKSTSTAYMELSSLRSEDTAVYYCARDYYGSSSWFAYWGQGTLVTVSS
VL: EIVMTQSQATLSTSPGERATLSCKASQNVGTNVAWYQQKPGQAPRALIYSASYRYSGVPARFSGSGSGTDFTLTISSVEPEDFAVYYCQQYNSYPYMYTFGQGTKLEIK
notes: humanized
B6: Ab416 (antibody, V domains shown)
VH: EVQLVQSGAEVKKPGASVKLSCKASGYTFTSYWMHWVRQAPGQGLEWIGYIKPSSGYTKYNQKFKDKATLTADKSTSTAYMELRSLRSDDTAVYYCARDYYGSSSWFAYWGQGTLVTVSS
VL: EIVMTQSQATLSTSPGERATLSCKASQNVGTNVAWYQQKPGQAPRALIYSASYRYSGVPARFSGSGSGTDFTLTISSVEPEDFAVYYCQQYNSYPYMYTFGQGTKLEIK
notes: humanized
B7: Ab417 (antibody, V domains shown)
VH: EVQLVQSGAEVAKPGASVKLSCKASGYTFTSYWMHWVRQAPGQGLEWIGYIKPSSGYTKYNQKFKDKATLTADKSTSTAYMELRSLRSDDTAVYYCARDYYGSSSWFAYWGQGTLVTVSS
VL: EIVMTQSQATLSTSPGERATLSCKASQNVGTNVAWYQQKPGQAPRALIYSASYRYSGVPARFSGSGSGTDFTLTISSVEPEDFAVYYCQQYNSYPYMYTFGQGTKLEIK
notes: humanized
B8: Ab441 (antibody, V domains shown)
VH: EVQLVQSGAEVAKPGASVKLSCKASGYTFTSYWMHWVRQAPGQGLEWIGYIKPSSGYTKYNQKFKDKATLTADKSTSTAYMELRSLRSDDTAVYYCARDYYGSSSWFAYWGQGTLVTVSS
VL: EIVMTQSQATMSTSVGERATLSCKASQNVGTNVAWYQQKPGQSPKALIYGASTRATGVPARFSGSGSGTDFTLTISSVEPEDFAVYYCQQYNSYPYMYTFGQGTKLEIK
notes: humanized
B9: Ab421 (antibody, V domains shown)
VH: EVQLVQSGAEVKKPGSSVKVSCKASGYTFSSYWMHWVRQAPGQGLEWIGYIKPSSGYTKYNQKFKDKATLTADKSTSTAYMELSSLRSEDTAVYYCARDYYGSSSWFAYWGQGTLVTVSS
VL: EIVMTQSQATLSTSPGERATLSCKASQNVGTNVAWYQQKPGQAPRALIYSASYRYSGVPARFSGSGSGTDFTLTISSVEPEDFAVYYCQQYNSYPYMYTFGQGTKLEIK
notes: humanized
B10: Ab440 (antibody, V domains shown)
VH: EVQLVQSGAEVKKPGASVKLSCKASGYTFTSYWMHWVRQAPGQGLEWIGYIKPSSGYTKYNQKFKDKATLTADKSTSTAYMELRSLRSDDTAVYYCARDYYGSSSWFAYWGQGTLVTVSS
VL: EIVMTQSQATMSTSVGERATLSCKASQNVGTNVAWYQQKPGQSPKALIYGASTRATGVPARFSGSGSGTDFTLTISSVEPEDFAVYYCQQYNSYPYMYTFGQGTKLEIK
notes: humanized
B11: Ab419 (antibody, V domains shown)
VH: QVQLVQSGAEVAKPGSSVKLSCKASGYTFTSYWMHWVKQAPGQGLEWIGYIKPSSGYTKYNQKFKDKATLTADKSTSTAYMELSSLRSEDTAVYYCARDYYGSSSWFAYWGQGTLVTVSS
VL: EIVMTQSQATLSTSPGERATLSCKASQNVGTNVAWYQQKPGQAPRALIYSASYRYSGVPARFSGSGSGTDFTLTISSVEPEDFAVYYCQQYNSYPYMYTFGQGTKLEIK
notes: humanized
B12: Ab427 (antibody, V domains shown)
VH: QVQLVQSGAEVAKPGASVKLSCKASGYTFTSYWMHWVKQAPGQGLEWIGYIKPSSGYTKYNQKFKDKATLTADKSTSTAYMELRSLRSDDTAVYYCARDYYGSSSWFAYWGQGTLVTVSS
VL: EIVMTQSPATLSTSPGERATLSCRASQSVSSNLAWYQQKPGQAPRALIYSASYRYSGVPARFSGSGSGTDFTLTISSVEPEDFAVYYCQQYNSYPYMYTFGQGTKLEIK
notes: humanized
B13: Ab424 (antibody, V domains shown)
VH: EVQLVQSGPEVKKPGTSVKLSCKASGYTFTSYWMHWVRQARGQRLEWIGYIKPSSGYTKYNQKFKDRATLTADKSTSTAYMELSSLRSEDTAVYYCARDYYGSSSWFAYWGQGTLVTVSS
VL: EIVMTQSPATLSTSPGERATLSCRASQSVSSNLAWYQQKPGQAPRALIYSASYRYSGVPARFSGSGSGTDFTLTISSVEPEDFAVYYCQQYNSYPYMYTFGQGTKLEIK
notes: humanized
B14: Ab425 (antibody, V domains shown)
VH: EVQLVQSGAEVKKPGTSVKLSCKASGYTFTSSAMQWVKQAPGQGLEWIGYIKPSSGYTKYNQKFKDKATLTADKSTSTAYMELSSLRSEDTAVYYCARDYYGSSSWFAYWGQGTLVTVSS
VL: EIVMTQSPATLSTSPGERATLSCRASQSVSSNLAWYQQKPGQAPRALIYSASYRYSGVPARFSGSGSGTDFTLTISSVEPEDFAVYYCQQYNSYPYMYTFGQGTKLEIK
notes: humanized
B15: Ab428 (antibody, V domains shown)
VH: EVQLVQSGAEVKKPGASVKLSCKASGYTFTSYWMHWVRQAPGQGLEWIGYIKPSSGYTKYNQKFKDKATLTADKSTSTAYMELRSLRSDDTAVYYCARDYYGSSSWFAYWGQGTLVTVSS
VL: EIVMTQSPATLSTSPGERATLSCRASQSVSSNLAWYQQKPGQAPRALIYSASYRYSGVPARFSGSGSGTDFTLTISSVEPEDFAVYYCQQYNSYPYMYTFGQGTKLEIK
notes: humanized
B16: Ab443 (antibody, V domains shown)
VH: QVQLVQSGAEVAKPGSSVKLSCKASGYTFTSYWMHWVKQAPGQGLEWIGYIKPSSGYTKYNQKFKDKATLTADKSTSTAYMELSSLRSEDTAVYYCARDYYGSSSWFAYWGQGTLVTVSS
VL: EIVMTQSQATMSTSVGERATLSCKASQNVGTNVAWYQQKPGQSPKALIYGASTRATGVPARFSGSGSGTDFTLTISSVEPEDFAVYYCQQYNSYPYMYTFGQGTKLEIK
notes: humanized
B17: Ab432 (antibody, V domains shown)
VH: EVQLVQSGAEVKKPGSSVKLSCKASGYTFTSYWMHWVRQAPGQGLEWIGYIKPSSGYTKYNQKFKDKATLTADKSTSTAYMELSSLRSEDTAVYYCARDYYGSSSWFAYWGQGTLVTVSS
VL: EIVMTQSPATLSTSPGERATLSCRASQSVSSNLAWYQQKPGQAPRALIYSASYRYSGVPARFSGSGSGTDFTLTISSVEPEDFAVYYCQQYNSYPYMYTFGQGTKLEIK
notes: humanized
B18: Ab431 (antibody, V domains shown)
VH: QVQLVQSGAEVAKPGSSVKLSCKASGYTFTSYWMHWVKQAPGQGLEWIGYIKPSSGYTKYNQKFKDKATLTADKSTSTAYMELSSLRSEDTAVYYCARDYYGSSSWFAYWGQGTLVTVSS
VL: EIVMTQSPATLSTSPGERATLSCRASQSVSSNLAWYQQKPGQAPRALIYSASYRYSGVPARFSGSGSGTDFTLTISSVEPEDFAVYYCQQYNSYPYMYTFGQGTKLEIK
notes: humanized
B19: Ab433 (antibody, V domains shown)
VH: EVQLVQSGAEVKKPGSSVKVSCKASGYTFSSYWMHWVRQAPGQGLEWIGYIKPSSGYTKYNQKFKDKATLTADKSTSTAYMELSSLRSEDTAVYYCARDYYGSSSWFAYWGQGTLVTVSS
VL: EIVMTQSPATLSTSPGERATLSCRASQSVSSNLAWYQQKPGQAPRALIYSASYRYSGVPARFSGSGSGTDFTLTISSVEPEDFAVYYCQQYNSYPYMYTFGQGTKLEIK
notes: humanized
B20: Ab429 (antibody, V domains shown)
VH: EVQLVQSGAEVAKPGASVKLSCKASGYTFTSYWMHWVRQAPGQGLEWIGYIKPSSGYTKYNQKFKDKATLTADKSTSTAYMELRSLRSDDTAVYYCARDYYGSSSWFAYWGQGTLVTVSS
VL: EIVMTQSPATLSTSPGERATLSCRASQSVSSNLAWYQQKPGQAPRALIYSASYRYSGVPARFSGSGSGTDFTLTISSVEPEDFAVYYCQQYNSYPYMYTFGQGTKLEIK
notes: humanized
B21: Ab423 (antibody, V domains shown)
VH: QVQLVQSGAEVAKPGTSVKLSCKASGYTFTSYWMHWVKQAPGQGLEWIGYIKPSSGYTKYNQKFKDKVTLTADKSTSTAYMELSSLRSEDTAVYYCARDYYGSSSWFAYWGQGTLVTVSS
VL: EIVMTQSPATLSTSPGERATLSCRASQSVSSNLAWYQQKPGQAPRALIYSASYRYSGVPARFSGSGSGTDFTLTISSVEPEDFAVYYCQQYNSYPYMYTFGQGTKLEIK
notes: humanized

T1 sequence (Q9UM73 19-1038 limits assumed): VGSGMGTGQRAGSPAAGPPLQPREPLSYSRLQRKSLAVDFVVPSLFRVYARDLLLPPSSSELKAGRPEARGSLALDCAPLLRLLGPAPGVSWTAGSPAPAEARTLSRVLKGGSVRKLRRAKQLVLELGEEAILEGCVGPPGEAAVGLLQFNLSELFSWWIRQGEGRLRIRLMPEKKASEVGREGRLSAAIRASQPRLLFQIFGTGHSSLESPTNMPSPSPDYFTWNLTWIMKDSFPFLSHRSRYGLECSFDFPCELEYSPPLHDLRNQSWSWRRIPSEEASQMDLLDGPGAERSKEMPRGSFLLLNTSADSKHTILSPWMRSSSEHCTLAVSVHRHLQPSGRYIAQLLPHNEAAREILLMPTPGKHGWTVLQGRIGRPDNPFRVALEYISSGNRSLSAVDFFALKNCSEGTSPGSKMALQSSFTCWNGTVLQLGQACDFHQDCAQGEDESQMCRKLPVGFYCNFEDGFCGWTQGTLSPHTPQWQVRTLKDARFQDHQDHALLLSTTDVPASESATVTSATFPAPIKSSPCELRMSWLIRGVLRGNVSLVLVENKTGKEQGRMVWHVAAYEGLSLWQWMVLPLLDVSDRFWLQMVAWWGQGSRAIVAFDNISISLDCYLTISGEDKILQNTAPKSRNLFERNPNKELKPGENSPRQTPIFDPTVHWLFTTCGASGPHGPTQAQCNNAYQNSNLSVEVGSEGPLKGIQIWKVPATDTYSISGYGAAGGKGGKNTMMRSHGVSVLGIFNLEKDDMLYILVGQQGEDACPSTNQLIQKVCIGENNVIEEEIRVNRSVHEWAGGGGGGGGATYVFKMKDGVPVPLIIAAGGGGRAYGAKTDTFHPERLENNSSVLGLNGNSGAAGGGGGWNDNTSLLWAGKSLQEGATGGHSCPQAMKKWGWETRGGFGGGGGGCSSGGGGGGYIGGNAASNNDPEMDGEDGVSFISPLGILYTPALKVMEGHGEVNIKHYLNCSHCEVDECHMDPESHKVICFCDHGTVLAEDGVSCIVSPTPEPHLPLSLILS

The experiment has as its target T1, purified ALK protein (BLitz, Table 20) (Homo sapiens (Human), UniProt Q9UM73 19-1038, limits assumed).
T1 construct: also called purified ALK proteins
The experiment in a line: BLI (BLitz), mAb on Protein A tip, purified ALK in solution. The method, then: Kinetic measurements of the monovalent affinity of the 96 humanized ALK antibody variants (Ab351-Ab446) were collected. Affinity ranking was performed using a BLitz® System (ForteBio, Menlo Park, Calif.). Humanized anti-ALK antibodies were immobilized at 0.5 mg/mL using Protein A tips. Once baseline stability was ensured, purified ALK proteins at 70 μg/mL were added. The resulting kinetic data were fit to a single binding site equation, from which the quoted monovalent KD values were derived.
One may read the Kd as the constant that tells how readily two partners part at equilibrium. Read a high Kd as lower affinity. In turn, B1 yielded an equilibrium dissociation constant (Kd) of 128 nM.
The molecule B2 gave a Kd of 521 nM.
Molecule B3 showed a Kd of 131 nM.
Molecule B4 gave a dissociation constant Kd of 236 nM.
B5 gave a dissociation constant Kd of 173 nM.
Then B6, with 180 nM; and B7, with 170 nM; and B8, with 167 nM.
As for B9, the Kd was determined as 280 nM.
Then B10, with 138 nM.
Next, B11: 107 nM; B12: 162 nM.
Next, B13: 247 nM; B14: 2290 nM; B15: 253 nM.
B16 came in with a Kd of 145 nM.
B17 registered a Kd of 337 nM.
Then B18, with 252 nM; and B19, with 197 nM; and B20, with 326 nM.
Consider B21, for which binding was characterised by a dissociation constant (Kd) of 266 nM.
